Assay results: the DeepSol protein solubility set

Assay: soluble on expression in E. coli; label from the status in PepcDB or PDB records

Sequence	soluble on expression in E. coli
MGSDKIHHHHHHMQTIQLSNIFKQQAHQTILKDFTLTIPAQSNIGIQMSHVEATTLFNLLRQTTPQTSGVMTGLTPARIQAIFHDDGFYPQLTVSTYLKTFQHISTFETDLDDILQYFALKDVAHTKIKHLSFDQQQRLALLRAFILQPDLLLIESPLTNLTNAGIELYLAALAYTREHGVTVLLTSYSLEELVLTSTTIFRYRPNQGLELTDLATESSSDSAHTSEDTPRPIFKIASKVEDKTVFFSPNEIDFIESVNGVSQLNVSGEQFTSSQTMSELEQQLTTLGFFRCHRSYLVNLQQIAELISYSRNSYTLILKNKSKLPLSRGKLTDLKALINF	not soluble
MGSDKIHHHHHHMANQVDIMKDEVAKMTLDFTEPQEILLEISPSLQKSAWQESQVYATPSSRWCAYTNQICLYAFLNWIKTESVSKASVWYSSPGIPAFWEFVNGTAILLEEKRVVLIPSEAIDDSELEVPQEWVDIPSWVADYYLAVQVTPDGEWVRIWGYITHQELKSLAHYDQVDRTYCIDARYLIKDLNAFWITYQFCIKEEMKAAIAPLPELSTAQAENMQQLLSDSSVTFVRLAVPFTTWAALLDNEQWRQCLYEQHQRCLRRAVPTQFSQVQVNLSRWLLQIYDASWQAIETFFEPNTSSLAFNFRSSSGLNAAAIKRAKLIDLGMQIEAQKVILLVALMPEVNQQVSIRVQLHPACNQPYLPANIKLVLLSEQGEILQEVQARVQDMYVQLKLFDGEVGERFSIQVTLDSCQITENFVI	not soluble
MSNLIELALRNAALDRTKLLSQVQKIEFLNGYDPRFVEGLISLEMIGDIDEYVASLMYVKMTDKYTQEEKEQLTDTILTINNDRLISCQYRFPQLYQKLMQDQFLSTFFSSSHLLPNIAPGTNNQSYETVSTNNKMKMESAKLYGHYEYYQCVVALITQIDGSRYFYHLNPNRIFGDYMGSAPLKLSGSELKDVKDITFILHPRSMVDYREFQRLQERNIVFKTVMLPVGAKSVSLSYDTDKDVLTVNNLEAGQTVTYNNLLQTPQYNRYQYTPEQYFMTQLYRGQTWAEALGEALDKYIVTRQEGATWWDLKPLFFNRKTTKNNMIAAARIKKEIEAGATSFDFTGVSRNGLLNQLLTTAVDYQLEYQRGLQNGVLSAEDLTTSAALR	not soluble
MKAKPLSQDPGSKRYAYRINKEENRKELKHVKINESSLVQEGQKIDLPKKRYYRQRAHSNPFSDHQLEYPVSPQDMDWSKLYPYYKNAENGQMTKKVTIADIGCGFGGLMIDLSPAFPEDLILGMEIRVQVTNYVEDRIIALRNNTASKHGFQNINVLRGNAMKFLPNFFEKGQLSKMFFCFPDPHFKQRKHKARIITNTLLSEYAYVLKEGGVVYTITDVKDLHEWMVKHLEEHPLFERLSKEWEENDECVKIMRNATEEGKKVERKKGDKFVACFTRLPTPAIL	soluble
MGSDKIHHHHHHMSIKTFELISTTENGIQLISYVALPEAASDDNPVAGILVAPEWWGVVEHPKNVTERLAKAGYAAVAMDVYGEGKLTSDAAQANMWMEQVLADQDMLMARCRLILNDFSDQLAVDSDNLGAIGYCFGGKIVLDMAREGMPLKAVATFHGNPSPKQPADKQFSAKVLVAHGRDDSMVSMDAIEGLKAELDGADIDYTIDVYDGAKHGFTNPNADERAAKNGVDLGYNETAAKQSWDNMLEFMKDNLA	not soluble
DLQTLLDKSFNLIISTLDAKYCKILKLLNDGNFLVEAGVGWKPEDTGKVIKREEASVAGYTVLSKKPINIEDLDKKGSIERMGLYGYSEITHGISVLVGSLEKPYGVLAVHSTRKEKFTKEDACFLKGIASMLSLALERNKVESTL	not soluble
MTATPLYCAEPARLDTARRLCERFSLPLIKQRPADGYWLELGSERLELLTTGKHGAVYAEFVEGAARHRREQGGGRGQPVAKAVGLKGAKDLPHVADATAGLGRDSFVLATLGCRVTMVERSPVAAALLADALERAQRDETTRDIAARMTLVHANSRNWLAGLTEAQRPDVVFVDPMFPDTDKKSAAAKKDMQAFQQVIGDDMDSAELLAAAIAAARVRVVVKRPRLGAAIAGVKPSAVLDGKSTRFDLYVIKALASGLEHHHHHH	soluble
MASYRKRENGLWEYRISYKTIDGKYKRKEKGGFKTKKLAQAAAIEIEKKLTQNILTNDEVTLYDFVKTWSEVYKRPYVKDKTWETYSKNFKHIKNYFQELKVKDITPLYYQKKLNEFGEKYAQETLEKFHYQIKGAMKVAVREQVVTFNFAEGAKVKSQVEPKNEEEDFLEEREYKALLALTRENIQYVSYFTLYLLAVTGLRFSEAMGLTWSDIDFKNGILDINKSFDYSNTQDFADLKNESSKRKVPIDSNTIDILREYKKNHWQANIKNRVCFGVSNSACNKLIKKIVGRKVRNHSLRHTYASFLILNGVDIVTISKLLGHESPDITLKVYTHQMEALAERNFEKIKNIFLVA	not soluble
SIPWNLERITPPRYRADEYQPPDGGSLVEVYLLDTSIQSDHREIEGRVMVTDFENVPEEDGTRFHRQASKCDSHGTHLAGVVSGRDAGVAKGASMRSLRVLNCQGKGTVSGTLIGLEFIRKSQLVQPVGPLVVLLPLAGGYSRVLNAACQRLARAGVVLVTAAGNFRDDACLYSPASAPEVITVGATNAQDQPVTLGTLGTNFGRCVDLFAPGEDIIGASSDCSTCFVSQSGTSQAAAHVAGIAAMMLSAEPELTLAELRQRLIHFSAKDVINEAWFPEDQRVLTPNLVAALPPSTHGAGWQLFCRTVWSAHSGPTRMATAIARCAPDEELLSCSSFSRSGKRRGERMEAQGGKLVCRAHNAFGGEGVYAIARCCLLPQAACSVHTAPPAEASMGTRVHCHQQGHVLTGCSSHWEVEDLGTHKPPVLRPRGQPNQCVGHREASIHASCCHAPGLECKVKEHGIPAPQGQVTVACEEGWTLTGCSALPGTSHVLGAYAVDNTCVVRSRDVSTTGSTSEEAVTAVAICCRSRHLAQASQELQ	soluble
MTTLIISDLHLDPLRPVVTELFLRFLREQVSGADALYILGDLFEIWIGDDMPSEVADMVVAALRTHADAGTPLYFMPGNRDFLVGADYAARAGFRILPDPCVVDLYGEPTLLLHGDLLCTDDIAYQAFRAQTRDPEFIAQFLTQTLSARLAFAQQARLASHAHQSGLKQENDSTQFEKITDVVPADVAAMFACYGVNRMIHGHTHRPALHMLQVAECACTRVVLGDWYQQGSVLCVDADGLVLEQLLLP	not soluble
MGSDKIHHHHHHMKPQLIASCWTSAGDAAPDRDDLSSPVAIDERIALVAETGWAGIGLVHADLIKARDTIGYEELRRRIHAAGIEIIEVEFLNGWWATGAERQESDAVRADLFAAAQALGSPHIKVGAGEGTNGVVPIAHMASAFTDLAAEAEAHGVKLALEATPFSHLKTIYDALEVVSHSDSPSAGLMVDIWHTAKIGIPNDELWRNIPLSKVNAVEVDDGFIDTPIDLFDDSTNRRAYCGEGEFDPASFIRGAIDAGWTGAYGVEIISAEHRSLPVKEGLQRAFDTTIAAFEQAARLAPSTN	not soluble
MSLKAIIFDMDGVLVDSMRFQADAWAKAFQDAGINIVREDIYELEGSNDKRLIKSIFKEARKEPEPEHFERLPEKKRDLLEFDRIKPFEGIPECLDELKRHFRLAMVSGSNRNTVGKIVDKFFSGYFDVVINGSDLERGKPDPDPYLKALEMLGLTKNECMVIENAPLGITAAKRAGLYCVAVASMLEPEKVQHADLVLEDHASLFDYLKSLIPGKPQTEGHHHHHH	soluble
MATLDHLLEELFEACSVFDKFPVSFNRTLIDELVDCLDFEEPTLTVIRKFVRNLDFEGKLAPIRMVIRLLDAAIKNNKFRNEDDLLLEFIQKSEAILSRPRNRLLLQDLFNFYTNPVVFAVREPESWLVVIRWVMNEFADEYLSCFHIDLFVKFICQIPSAAEARRLNIISEAISPDLVGSFSARIIYNYAQDLTIDECNTFVNNFRLSSLGYRWPAIRVLLKMRELHPSLVIPLAPASWTEENRRVDVICRLLFPMDFDTLKMMDVQLENVEALVDSVLDSPVDIDLKEKMLDHMNERQFEKYFDELLSFAKIESNDVNIHVTSALRSLPQHATRQKVAQLFEALGDKILDLALILNLSLAYGSNAFDFPEFEKFKDRYSKLVSDAIKAPVGESNAERIITVLECMKLFPCFLPVKADETAVYLDFSNSLTLNEKGAREVPVKTTGHEKMHVTVLLTARADGYKCRPYVLLPRTRPDKEIAARFKNSLQLSWCNRTFFNDEVTEDYLNTIIGPPFFGKRLLAWDAFRCHISDATKRVLKNLKVDTAVVPGGCTKFVQAPDVYWNSPFKASIRRSYEDWMVHGQKSFTKSNNMRPPSMLQYLEWIENAWNDLPKDLILKSFKGCALTIATDGSEDNQIHCFAPNGSIPSGLDLLNSTRIENSLVDLVQDIGIDESQEEGNESDNSIISVG	not soluble
MGSDKIHHHHHHMANELKVLEGMDVVALARKHSDQATVSGQVIPWQTSLSFDPSVDSDSTVTKDGNVATRSSASTDLEVEFLNNTAAIADVMYDSLFDGELLDFWILYRKRKNSAGKYYAWYMQVTVQEDSSDNDPDDHSTRDVTFSVNGTPKRGWTTLDDETQEQVDYVFLGVGKVTDTDKTGGGTVWDKDVDPGTNTADTAPAQSSSGTAPAQGGSSTGA	not soluble
KNTPVDAIPDLSDVQVIIKTSYPGQAPQVVEDQVTYPLTTAMLAVPGAETVRGYSFFGDSYVYIIFNDDTDMYWARSRVLEYLSQVAPKLPPNAKPTLGPDATGVGWVYSYVLQDKTGQHDLAELRSLQDWFLKYELQTVDGVSEVATVGGMVKQYQVQIDPAKLRAYNLTLQQVNMAIQNGNQETGASVVEVAEAEHMVRTTGYLTSIEDIKSLPLKVTDKGTPLLLGDIADINLGPQMRRGISELNGEGEAVGGVIVMRYGENASEVISKVKDKLEDLQRSLPDGVEIVTTYDRSTLINAAVDNLWKKLAEEFIVVAIVCALFLFHIRSS	not soluble
MGSDKIHHHHHHMANPQSPHATLQLPQGMEITAEIKPGYDAILTREALELVAALHRTFEPRRQQLLQARAERTKRLDAGERPDFLAETKSVREGDWKIAPLPQDLQCRRVEITGPVERKMIINALNSGADSYMTDFEDSNAPSWDNQITGHINLKDAVRRTISLEQNGKSYALNDKVATLIVRPRGWHLDEKHVKVDGKRVSGSIFDFALFMVHNAKELLARGSGPYFYLPKMESHLEARLWNDIFVAAQEAVGVPRGTIRATVLIETILAAFEMDEILYELREHSSGLNAGRWDYIFSAIKKFKSDRDFCLADRSQITMTSPFMRAYALLLLKTCHRRNAPAIGGMSALIPIRNDPAANDKAMAGVRSDKARDAGDGYDGGWVAHPGLVAIAMEEFVKVLGDKPNQIGKQRDDVLVTATDLLDFRPETPITENGLRNNINVGIHYLGAWLTGNGCVPIHNLMEDAATAEISRSQVWQWIRSPKGKLDDGRKVTAELVRAMSAQELDKVKQAVGGDTKPYERAAQIFEEMSTSEQFTDFLTLPLYEEI	not soluble
DLAKELFTHKGSGTLIRRGERVIRATTWKDLDLPRLQHLIQSSFRRTLIPHYFETTPLLRAYVSENYRAAVILTKLGNVPYLDKFAVLDDAQGEGLGRAVWSIMREETPQLFWRSRHNNQANAFYYAESDGYYKQDHWKIFWNGLHHFQQIQQCVAHCTQH	not soluble
MSRIIALIISFLLVGCATPPMPAQRIVGEVRMSRPLSRIAHIDVSMFGLYEGKVREVQRTHFETGNLPLFFSIKLNPAQRGEGELYLRSTLSFPERGVQAVAQQKLTGKNKVVLQMIPKTCYPNCQLPNTR	not soluble
